According to patent US20100305025:

T1: human placental RNase inhibitor, P13489
T1 chain: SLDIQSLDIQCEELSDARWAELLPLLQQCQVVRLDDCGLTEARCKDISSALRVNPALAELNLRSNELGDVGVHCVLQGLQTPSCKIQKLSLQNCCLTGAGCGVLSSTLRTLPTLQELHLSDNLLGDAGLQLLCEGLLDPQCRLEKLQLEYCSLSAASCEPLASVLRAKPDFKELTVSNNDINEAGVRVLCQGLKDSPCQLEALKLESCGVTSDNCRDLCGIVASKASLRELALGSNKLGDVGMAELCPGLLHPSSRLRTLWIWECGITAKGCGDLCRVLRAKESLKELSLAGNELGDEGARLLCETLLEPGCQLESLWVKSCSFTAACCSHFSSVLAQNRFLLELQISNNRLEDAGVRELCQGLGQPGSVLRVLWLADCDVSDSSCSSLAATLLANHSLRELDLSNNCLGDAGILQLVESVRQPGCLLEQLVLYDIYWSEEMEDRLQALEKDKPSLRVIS

B1: recombinant carboxy-terminal FLAG-tagged chicken (Gallus gallus) leukocyte RNase A-1 (protein)
chain: VPTYQDFLRTHVDFPKTSFPNIAAYCNVMMVRRGINVHGRCKSLNTFVHTDPRNLNTLCINQPNRALRTTQQQLPVTDCKLIRSHPTCSYTGNQFNHRVRVGCWGGLPVHLDGTFP
B2: recombinant carboxy-terminal FLAG-tagged chicken (Gallus gallus) leukocyte RNase A-2 (protein)
chain: VPTYQDFLYKHMDFPKTSFPSNAAYCNVMMVRRGMTAHGRCKSFNTFVHTDPRNLNTLCINQPDQALRTTRRHFRITDCKLIRSHPTCRYSGNQFNRRVRVGCRGGLPVHLDGTSP

Target: T1, human placental RNase inhibitor, P13489

Row | Protein | RNase activity (yeast tRNA substrate)
1 | B1 | completely inhibited RNase activity
2 | B2 | completely inhibited RNase activity
